In patent US20200138870A1, “RECREATION OF PANCREATIC NICHE ALLOWS FOR NOVEL METHODS FOR HUMAN, MATURE BETA DERIVATION FROM PLURIPOTENT STEM CELLS” (Baylor College of Medicine, priority 2016, published 2020):

Legend:
Format in all cases: cell-based, human
EPs [1] = assay: Scratch assay (cell migration); details: 100 or 500 ng/ml WNT5A, 30h
Procedure: EPs were dissociated and seeded into 12 well-plate to reach 90% confluence before a scratch was made. 200 μl pipette tip was used to create a smooth scratch and followed by 3h of mitomycin C treatment. Cells were then washed thrice with PBS and B27 media with or without WNT5A was added. Pictures of the scratch wound were taken at 0, 6, 12, 18, 24 and 30h after scratch to observe cell migration. Pictures were analyzed by counting cells migrating into the gap using ImageJ.

hESC-derived EPs [2] = assay: RNA-sequencing of EPs treated with WNT5A
Procedure: Total RNA was extracted as described elsewhere herein and RNA quality was assessed using 2100 Bioanalyzer (Agilent Genomics). Samples with RIN≥9 preceded to library preparation using TruSeq stranded mRNA Library Prep Kit LT (Illumina) according to the manufacturer's protocol. Library concentration was determined by qPCR (KAPA Library Quantification Kit) to pool equal amounts of libraries with different adaptor indexes. Sequencing was performed using NextSeq500 (Illumina).
After preliminary analyses, showing a significant Pearson Correlation Coeficient for gene expression, two biological replicates were concatenated and analysed as single samples. This step yielded four samples, two for each treatment (5 days and 12h), as well as untreated samples. All reads were considered single-end in the bioinformatic analyses.
For Venn diagram, TFactS analysis and Gene enrichment analysis (GSEA), sequencing reads were first aligned using TopHat and the gene differential expression were assembled and analyzed using Cufflinks. […] To predict which transcription factors are responsible to the gene changes in the sequencing result, TFactS analysis was performed by inputting up and down regulation gene lists. […] For GSEA (http://software.broadinstitute.org/gsea/index.jsp), all input files were generated through GenePattern and the analysis was performed based on the instruction from Broad institute GSEA user guide with the following parameter: phenotype labels as 5dUT versus 5dWNT5A, 1000 genes set of permutations, weighted enrichment statistic, gene sets between 15 to 500, with log 2 ratio of class as metric for ranking genes. […] Data GEO submission number: GSE 90785.

hESC-derived EPs [3] = assay: Growth factor treatment of hESC-derived EPs for 3 days, immunofluorescence quantification of marker-positive cells
Procedure: hESC, ISL1-EGFP Hues8 and H1, were maintained under a feeder-free system on Geltrex (Invitrogen) in TeSR-E8 media (Stemcell Technologies). Cells were passaged at 70-80% confluence using TrypLE (Invitrogen). After dissociation, cells were seeded in TeSR-E8 media+10 μM Y-27632 for 24h. Differentiation was started when cells were 90% confluent. The following media and growth factors/small molecules (see also Table 3) were used: Day1: MCDB-131 media with 0.1% BSA+10 mM glucose+ActivinA and CHIR99021. Day2-3: MCDB-131 media+0.1% BSA+10 mM glucose+ActivinA. Day4-5: MCDB-131+0.1% BSA, 10 mM glucose, VitC+KGF. Day6-9: MCDB-131 2% BSA+5.5 mM glucose+Vit.C+ITS (Invitrogen)+ActivinA+KGF+RA+SANT-1+Noggin. Day10-12: MCDB-131+2% BSA+5.5 mM glucose+VitC+ITS+SANT-1+Noggin+PdBU. Day13-15: MCDB-131+2% BSA+5.5 mM glucose+VitC+ITS+Noggin+AlK5i. EPs were dissociated and seeded as 25,000 cells/well on Geltrex-coated 96-well plates in DMEM media (Invitrogen) with B27 Supplement (Thermo Fisher Scientific), later called B27 media, supplemented with 10 µM Y-27632 for 24h. Growth factors (Table 3) were added to B27 media, at two concentrations, and tested on EPs for 3 days. After 3 days, cells were PBS washed, fixed with 4% PFA/PBS for 20 min at room temperature (RT), washed twice with PBS and stained.
(§1) Cells were incubated with 5% donkey serum (Jackson ImmunoResearch Laboratories) in PBST (PBS+0.1% Triton-X) for 30 min to avoid nonspecific binding of the antibody and to permeabilize the cells. Primary antibodies, diluted in 5% donkey serum in PBST, were then added and incubated at 4° C. overnight with shaking. After primary antibody incubation, cells were washed 3 times with PBST and secondary antibodies conjugated with Alexa-Fluor Dyes (Jackson ImmunoResearch Laboratories) and diluted in 5% donkey serum in PBST were added to the cells for 30 min at RT. Then, cells were thrice washed with PBST and nuclei were stained with Dapi (Roche Diagnostics). For imaging, Leica DMI6000 or confocal Leica TCS SPE was used. Images were initially processed by LAS X software and then further analyzed and quantified using ImageJ software (NIH, W Rasband, http://rsb.info.nih.gov/ij) using cell counter plug-in. Typically, at least 5 randomly selected images were counted per condition.

EPs [4] = assay: Proliferation by phospho-histone H3 (pH3) staining after WNT5A treatment
Procedure: as §1

hESC-derived EPs [5] = assay: Transwell migration and chemotaxis assay; details: 100, 500 ng/ml WNT5A in bottom well
Procedure: Transwell assays were performed using FluoroBlock Insert, […] pore size (Corning). The bottom 24 wells and the insert of transwell were coated with Geltrex to retained cells. At the experiment day, 1.5×10^5 hESC-derived EPs were seeded in each well at the transwell insert in B27 media with 10 μM Y-27632 and the well bottoms were replenished with either B27 media as control, B27 media+100 or 500 ng/ml WNT5A, or conditional media from Wk9.1, 17.5h and 20.1. After one week, the cell attached to the bottom wells were stained with Dapi and were counted.

[6] = 5-day long treatment with WNT5A

B1: WNT5A: secreted growth factor from the human pancreatic niche (R&D), used at 100 or 500 ng/ml (protein)
chain: IIGAQPLCSQLAGLSQGQKKLCHLYQDHMQYIGEGAKTGIKECQYQFRHRRWNCSTVDNTSVFGRVMQIGSRETAFTYAVSAAGVVNAMSRACREGELSTCGCSRAARPKDLPRDWLWGGCGDNIDYGYRFAKEFVDARERERIHAKGSYESARILMNLHNNEAGRRTVYNLADVACKCHGVSGSCSLKTCWLQLADFRKVGDALKEKYDSAAAMRLNSRGKLVQVNSRFNSPTTQDLVYIDPSPDYCVRNESTGSLGTQGRLCNKTSEGMDGCELMCCGRGYDQFKTVQTERCHCKFHWCCYVKCKKCTEIVDQFVCK
**Q.** For B1, which “cell mobility in scratch assays (in words)” value (EPs [1]) is on record?
**A.** Its value is “no increase in cell mobility”.

**Q.** What about the “downregulation of GCG” value (hESC-derived EPs [2]; 5-day WNT5A treatment) of the same molecule?
**A.** The value was 5 fold.

**Q.** And the “downregulation of MAFB” value (hESC-derived EPs [2]; 5-day WNT5A treatment)?
**A.** Its value is 3 fold.

**Q.** And the “downregulation of NGN3” value (hESC-derived EPs [2]; 5-day WNT5A treatment)?
**A.** Its value is 2 fold.

**Q.** And the “up-regulation of GCK” value (hESC-derived EPs [2]; 5-day WNT5A treatment)?
**A.** Its value is 9 fold.

**Q.** And the “up-regulation of INS” value (hESC-derived EPs [2]; 5-day WNT5A treatment)?
**A.** The value was 81 fold.

**Q.** What about the “up-regulation of NEUROD1” value (hESC-derived EPs [2]; 5-day WNT5A treatment) of the same molecule?
**A.** Its value is 56 fold.

**Q.** And the “up-regulation of PCSK2” value (hESC-derived EPs [2]; 5-day WNT5A treatment)?
**A.** Its value is 7 fold.

**Q.** What about the “up-regulation of SYT4” value (hESC-derived EPs [2]; 5-day WNT5A treatment) of the same molecule?
**A.** Its value is 16 fold.

**Q.** And the “expression of BMP3, 4, and 6, GDF5 and 9 (in words)” value (hESC-derived EPs [2]; [6])?
**A.** The value was “downregulated”.

**Q.** And the “expression of DCN and BMP antagonist BMPER (in words)” value (hESC-derived EPs [2]; [6])?
**A.** Its value is “upregulated”.

**Q.** And the “number of INS+ cells” value (hESC-derived EPs [3]; 100 ng/ml of WNT5A (30% in B27))?
**A.** The value was 39%.

**Q.** And the “number of INS+ cells” value (hESC-derived EPs [3]; 500 ng/ml WNT5A (30% in B27))?
**A.** Its value is 60%.

**Q.** And the “decrease in the number of GCG+ cells” value (hESC-derived EPs [3]; 3-day EP treatment, vs untreated control)?
**A.** Its value is 3 fold.

**Q.** What about the “average increase in number of cells positive for all test markers” value (hESC-derived EPs [3]; 3 days treatment of EPs) of the same molecule?
**A.** Its value is 5 fold.

**Q.** And the “numbers of ISL1-eGFP, CHGA+, INS+ and C-peptide+ cells over untreated controls (in words)” value (hESC-derived EPs [3]; 3 days treatment of EPs)?
**A.** Its value is “increased”.

**Q.** What about the “number of INS+ cells among all factors and combinations tested (in words)” value (hESC-derived EPs [3]; WNT5A in different combinations at 500 ng/ml, 3 days) of the same molecule?
**A.** The value was “consistently and most significantly increased”.

**Q.** What about the “fold increase in number of ins+ cell generate from hESCs” value (hESC-derived EPs [3]; growth factors alone or in combination) of the same molecule?
**A.** Its value is 6 fold.

**Q.** And the “effect in EP proliferation (in words)” value (EPs [4]; 3 days of WNT5A treatment)?
**A.** The value was “modest effect”.

**Q.** What about the “pH3+ cells” value (EPs [4]; 3 days of WNT5A treatment (1% in control)) of the same molecule?
**A.** The value was 2%.

**Q.** What about the “chemoattractant activity on EP migration (in words)” value (hESC-derived EPs [5]) of the same molecule?
**A.** Its value is “does not act as a chemoattractant”.
